Reference: publication PMC6532589

Biological target: human alpha-thrombin (human, UniProt P00734;P00734 328-363;364-622)
Assay: centrifugation separation, free thrombin by fibrinogen-Au NP assay, Scatchard; graphene oxide carrier; 100 uM BSA; PBS (1X: 137 mM NaCl, 2.7 mM KCl, 10 mM Na2HPO4, 1.8 mM KH2PO4, pH 7.4) with 100 uM BSA, 30 min; 100 pM Supra-TBA15/29, thrombin 0-1 nM; temperature not stated

B1: Supra-TBA15/29-GO (sTBA15 + sTBA29 network on graphene oxide) (mixed)
DNA 1: AAAAAAAAAAAAAAAAAAAACGACCTGTACGACTCTTTTTTCAGGGTTGGTGTGGTTGGCTGATTTTTATCTTCACGAGCACT
DNA 2: GAGTCGTACAGGTCGTTTTTAGTCCGTGGTAGGGCAGGTTGGGGTGACTTTTTTAGTGCTCGTGAAGATAAAAAAAAAAAAAAAAAAAA
modifications: adsorbed on graphene oxide through A20 tails (40 ug/mL GO, 60 C)
Kd: 0.019 nM
